Reference: paper PMC9605868

Target: AP-1σ1 (cells' own, or HA-AP1S1) (UniProt P61966)
Experiment: anti-Flag IP, western blot for AP-1
Details: reference: wild type; sites S366

binding against the reference: weaker
Substance: STING (from UniProt Q86WV6) S366A
